Data as given in patent US9416178B2, “Jagged-binding agents and uses thereof” (OncoMed Pharmaceuticals, Inc., priority 2009, dated 2016).
Residue numbers refer to the chain shown, from its start.

B1: 133R0201: 64R7 variant anti-Jagged antibody; heavy chain variable region SEQ ID NO:50, light chain variable region SEQ ID NO:21 (antibody, V domains shown)
VH: QVQLVESGGGVVQPGRSLRLSCAASGFTFSSYAMHWVRQAPGKGLEWVAAIYPDSSNKYYADSVKGRFTISRDNSKNTLYLQMNSLRAEDTAVYYCARDKYDIPDAFDIWGQGTLVTVS
VL: DIRMTQSPSSLSASVGDRVTITCRASQGISNDLAWYQQKPGKVPRLLIYATSTLQSGVPSRFSGSGSATDFTLTISSLQPEDVATYYCQQSYNAPITFGQGTRLEIK
modifications: 133R0201 Heavy chain variable region; 64R7 Light chain variable region
B2: 133R0203: 64R7 variant anti-Jagged antibody; heavy chain variable region SEQ ID NO:51, light chain variable region SEQ ID NO:21 (antibody, V domains shown)
VH: B1 VH with Y52S, D54E, S55A
VL: B1 VL
modifications: 133R0203 Heavy chain variable region; 64R7 Light chain variable region
B3: 133R0205: 64R7 variant anti-Jagged antibody; heavy chain variable region SEQ ID NO:52, light chain variable region SEQ ID NO:21 (antibody, V domains shown)
VH: B1 VH with D54A
VL: B1 VL
modifications: 133R0205 Heavy chain variable region; 64R7 Light chain variable region

Tests used:
[1] = system: PN17 pancreatic tumor cells; test: PN17 pancreatic tumor xenograft model; assay type: in vivo, NOD/SCID mice; conditions: antibody 15 mg/kg twice a week or gemcitabine 5 mg/kg once a week, intraperitoneally, FIG. 7
Protocol: PN17 pancreatic tumor cells were injected subcutaneously into the flanks of NOD/SCID mice. 10,000 cells were injected per animal. Mice were monitored weekly and tumors were allowed to grow until they were approximately 145 mm^3. The mice were randomized into four treatment groups (n=10 mice/group) and treated with either control antibody (LZ-1), anti-Jagged 64M51, gemcitabine or a combination of 64M51 and gemcitabine. Gemcitabine was administered intraperitoneally at a dose of 5 mg/kg once a week and antibodies were administered intraperitoneally at a dose of 15 mg/kg twice a week.

[2] = system: human Jagged1-induced Notch2 activation; test: Notch luciferase reporter assay, two cell population format; assay type: cell-based; conditions: Example 14; PC3 cells; antibody 50 to 0.2 μg/ml; FIG. 12B
From the text: (§1) The ability of Jagged antibodies to inhibit Jagged-induced Notch signaling was also investigated using a two cell population assay format. One population of human PC3 cells was transfected with an expression vector encoding a full-length Notch2 receptor as well as plasmids encoding a Notch-dependent firefly luciferase reporter construct (8×CBF luciferase) and a Renilla luciferase reporter (Promega, Madison Wis.) as an internal transfection control. A second population of human PC3 cells was transfected with an expression vector encoding a full-length cDNA for either hJagged1 or hJagged2. Aliquots of the two cell populations were mixed together and incubated overnight in the presence of 64M51, 64R7 or 64R1B antibodies that were serially diluted 1:4 from 40 to 0.039 μg/ml, luciferase levels were measured 18 hours later using a dual luciferase assay kit (Promega, Madison, Wis.) with firefly luciferase activity normalized to Renilla luciferase activity. Shown is a titration of 64M51, 64R1B and 64R7 antibodies in this assay.
(§2) The ability of Jagged antibodies 133R0201, 133R0203, 133R0205, 133R0207, 133R0208, 133R0209 and 133R0210 to inhibit Jagged-induced Notch signaling was investigated using a two cell population assay format as described above in Example 6. One population of human PC3 cells was transfected with an expression vector encoding a full-length Notch2 receptor as well as plasmids encoding a Notch-dependent firefly luciferase reporter construct (8×CBF luciferase) and a Renilla luciferase reporter (Promega, Madison Wis.) as an internal transfection control. A second population of human PC3 cells was transfected with an expression vector encoding a full-length cDNA for either hJagged1 or hJagged2. Aliquots of the two cell populations were mixed together and incubated overnight in the presence of antibodies 64R7, 133R0201, 133R0203, 133R0205, 133R0207, 133R0208, 133R0209 and 133R0210 that were serially diluted 1:3 from 50 to 0.2 μg/ml. Luciferase levels were measured 18 hours later using a dual luciferase assay kit (Promega, Madison, Wis.) with firefly luciferase activity normalized to Renilla luciferase activity. Shown in FIGS. 12A and 12B are titrations of the antibodies in this assay.

[3] = system: human Jagged2-induced Notch activation; test: as above; assay type: cell-based; conditions: Example 14; PC3 cells; antibody 50 to 0.2 μg/ml; FIG. 12A
From the text: as §1, §2

OMP-Lu45 cells = test: Lu45 lung tumor xenograft model (Example 16); assay type: in vivo, NOD/SCID mice; conditions: FIG. 14; for reduction of tumor growth, antibody in combination with taxol relative to taxol alone: antibody 15 mg/kg twice a week plus taxol 15 mg/kg once a week
Protocol: The anti-tumor activity of antibodies 64R7, 133R0201, 133R0203, 133R0205 and 133R206 was evaluated in the lung Lu45 tumor xenograft model. Dissociated OMP-Lu45 cells (50,000 per animal) were injected subcutaneously into 6-8 week old male NOD/SCID mice. Tumor growth was monitored weekly and tumor measurements were initiated once tumors were palpable. On day 41, mice with average tumor volumes of 132 mm^3 were randomized into 10 groups of 10 animals each. Animals were injected with control antibody, antibody 64R7, antibody 133R0201, antibody 133R0203, antibody 133R0205, antibody 133R0206 (all at 15 mg/kg), taxol (15 mg/kg), a combination of antibody 64R7 and taxol, a combination of antibody 133R0203 and taxol, or a combination of antibody 133R0205 and taxol. Administration of the antibodies and taxol was performed via injection into the intra-peritoneal cavity, once a week for taxol and twice a week for antibodies. Tumors were measured twice a week and tumor volume was determined using the formula ½(a×b^2); where a=length, and b=breadth. Data are expressed as mean and mean±S.E.M. Group means were compared using Student's two-tailed, unpaired t test.

OMP-Lu42 cells = test: Lu42 lung tumor xenograft model; assay type: in vivo, NOD/SCID mice; conditions: 15 mg/kg intraperitoneally twice a week, FIG. 13
Protocol: The anti-tumor activity of antibodies 64R7, 133R0203, and 133R0205 were evaluated in the lung Lu42 tumor xenograft model. Dissociated OMP-Lu42 cells (50,000 per animal) were injected subcutaneously into 6-8 week old male NOD/SCID mice. Tumor growth was monitored weekly and tumor measurements were initiated once tumors were palpable. On day 54, mice with average tumor volumes of 114 mm^3 were randomized into 4 groups of 10 animals each. Animals were injected with 15 mg/kg of either control antibody, antibody 64R7, antibody 133R0203, or antibody 133R0205. Administration of the antibodies was performed via injection into the intraperitoneal cavity, twice a week. Tumors were measured twice a week and tumor volume was determined using the formula ½(a×b^2); where a=length, and b=breadth. Data are expressed as mean and mean±S.E.M. Group means were compared using Student's two-tailed, unpaired t test.

Molecule | tumor growth, single agent [1] | inhibition of human Jagged1-induced Notch activation, two cell population assay [2] | inhibition of human Jagged2-induced Notch activation, two cell population assay [3] | reduction in tumor growth, single agent compared to control antibody (OMP-Lu45 cells; 15 mg/kg twice a week) [%] | reduction in tumor growth, single agent compared to control antibody (OMP-Lu42 cells) [%] | reduction of tumor growth, antibody in combination with taxol relative to taxol alone (OMP-Lu45 cells)
Nc1ccn([C@@H]2O[C@H](CO)[C@@H](O)C2(F)F)c(=O)n1 [gemcitabine, reference compound] | transient initial response |  |  |  |  | 
B1 |  | inhibitors | inhibitors | 24 |  | 
B2 |  | inhibitors | inhibitors |  | 28 | 36%
B3 |  | inhibitors | inhibitors |  | 33 | reduction of tumor growth
